The values below come from PMC2213684, “Altering coenzyme specificity of Pichia stipitis xylose reductase by the semi-rational approach CASTing” (Microbial Cell Factories, 2007).

Substrate in data set [1]: NC(=O)C1=CN([C@@H]2O[C@H](COP(=O)(O)OP(=O)(O)OC[C@H]3O[C@@H](n4cnc5c(N)ncnc54)[C@H](O)[C@@H]3O)[C@@H](O)[C@H]2O)C=CC1
Kind of data set: purified protein. The settings on record: 50 mM potassium phosphate pH 6.0. The data set is classed as biochemical, Scheffersomyces stipitis.

Substrate in data set [2]: NC(=O)C1=CN([C@@H]2O[C@H](COP(=O)(O)OP(=O)(O)OC[C@H]3O[C@@H](n4cnc5c(N)ncnc54)[C@H](OP(=O)(O)O)[C@@H]3O)[C@@H](O)[C@H]2O)C=CC1
Kind of data set: purified protein. The format is biochemical, Scheffersomyces stipitis. The settings on record: 50 mM potassium phosphate pH 6.0.

The mark [3] stands for this setting: mutant NT-K270R/N272D, 0.5 M xylose.

Substitutions are numbered along the chain they refer to. Numbers in names are those of the source.

B1: PsXR (wild-type NT-XR), Pichia stipitis xylose reductase (Scheffersomyces stipitis CBS 6054) (protein)
chain: MPSIKLNSGYDMPAVGFGCWKVDVDTCSEQIYRAIKTGYRLFDGAEDYANEKLVGAGVKKAIDEGIVKREDLFLTSKLWNNYHHPDNVEKALNRTLSDLQVDYVDLFLIHFPVTFKFVPLEEKYPPGFYCGKGDNFDYEDVPILETWKALEKLVKAGKIRSIGVSNFPGALLLDLLRGATIKPSVLQVEHHPYLQQPRLIEFAQSRGIAVTAYSSFGPQSFVELNQGRALNTSPLFENETIKAIAAKHGKSPAQVLLRWSSQRGIAIIPKSNTVPRLLENKDVNSFDLDEQDFADIAKLDINLRFNDPWDWDKIPIFV
In the case of B1, in data set [1] (0.5 M xylose), the Michaelis constant (Km) was 10.6 ± 0.6 µM, the kcat came out at 15.4 ± 0.583 s⁻¹ and the kcat/Km stood at 1.46e+06 ± 112000 M⁻¹ s⁻¹. In data set [2] (0.5 M xylose), the Km was 6.2 ± 1.4 µM, the kcat was determined as 27.5 ± 3.28 s⁻¹ and the kcat/Km stood at 4.65e+06 ± 938000 M⁻¹ s⁻¹.

B2: PsXR (wild-type NT-XR), Pichia stipitis xylose reductase (Scheffersomyces stipitis CBS 6054; K270R/N272D) (protein)
chain: B1 chain with K270R, N272D
As for B2, in data set [1] (setting [3]), the Km stood at 58 ± 9 µM, the turnover number (kcat) was found to be 17.9 ± 2.07 s⁻¹ and the kcat/Km was 313000 ± 40000 M⁻¹ s⁻¹. In addition, in data set [2] (setting [3]), the Km was 142 ± 31 µM, the kcat turned out to be 15.9 ± 3.38 s⁻¹ and the kcat/Km was found to be 107000 ± 24800 M⁻¹ s⁻¹.

B3: PsXR (wild-type NT-XR), Pichia stipitis xylose reductase (Scheffersomyces stipitis CBS 6054; K270S/N272P) (protein)
chain: B1 chain with K270S, N272P
For B3, in data set [1] (mutant 1-2F7, 0.5 M xylose), the Km turned out to be 512 ± 22 µM, the kcat worked out at 18.5 ± 1.3 s⁻¹ and the kcat/Km was found to be 36300 ± 2520 M⁻¹ s⁻¹. In addition, in data set [2] (mutant 1-2F7, 0.5 M xylose), the Km came out at 849 ± 45 µM, the kcat worked out at 35.2 ± 3.93 s⁻¹ and the kcat/Km worked out at 41700 ± 5000 M⁻¹ s⁻¹.

B4: PsXR (wild-type NT-XR), Pichia stipitis xylose reductase (Scheffersomyces stipitis CBS 6054; K270S/N272P/R276F/S271G) (protein)
chain: B1 chain with K270S, S271G, N272P, R276F
On to B4, for which, in data set [1] (mutant 2-2C12, 0.5 M xylose), the Km was determined as 147 ± 12 µM, the kcat came to 12 ± 0.95 s⁻¹ and the kcat/Km came to 81700 ± 5250 M⁻¹ s⁻¹. In addition, in data set [2] (mutant 2-2C12, 0.5 M xylose), the Km is 427 ± 17 µM, the kcat amounted to 2.63 ± 0.15 s⁻¹ and the kcat/Km stood at 6170 ± 317 M⁻¹ s⁻¹.

Broadly, the Km is the concentration of substrate that gives half-maximal velocity. In general, kcat refers to the number of substrate molecules converted per active site and unit of time at saturation. The term kcat/Km denotes the second-order rate constant that governs catalysis at low substrate concentration.
